Tests used:
[1] = biological target: T1, human CD137 expressed on cells (human, UniProt Q07011 24-255); assay: FACS on CHO cells stably transfected with human CD137; anti-lipocalin primary and Alexa488 secondary antibody
T1 construct: whole, on cells; also called CHO-huCD137; CHO::hCD137
Protocol: (§1) To perform the experiment, CD137-positive and negative Flp-In CHO cells were incubated with lipocalin muteins, and bound mutein was labeled using anti-lipocalin primary antibodies and fluorescently labeled secondary antibodies, which were detected by FACS analysis as described in the following.
(§2) 1×10⁵ cells per well were pre-incubated for 1 h in ice-cold PBS containing 5% fetal calf serum (PBS-FCS). Subsequently, a dilution series of lipocalin muteins and negative controls typically ranging from 10 μM to 1 nM was added to the cells and incubation was continued on ice for 1 h. Cells were washed twice in ice-cold PBS using centrifugation at 300 g and then incubated with a rabbit anti-lipocalin primary antibody (Pieris, (polyclonal rabbit anti-hNGAL and rabbit anti-hTLC; Pieris) for 30 min on ice. Cells were washed twice in ice-cold PBS, re-suspended in PBS-FCS and incubated 30 min on ice with a secondary anti-rabbit antibody labelled with the fluorescent dye Alexa488 (Life Technologies). Cells were subsequently washed and analyzed using a Guava easyCyte HT Flow cytometer. Typically, a gate was set to exclude non-viable cells and 5.000 events were recorded. Numerical results are expressed as the geometric mean of the fluorescence intensity.

[2] = biological target: T2, human CD137-Fc fusion protein (Fc-fusion of the full extracellular domain of human CD137, R&D Systems 838-4B) (human, UniProt Q07011 24-186); assay: SPR (Biacore T200, 37 C), huCD137-Fc captured via anti-human IgG-Fc antibody, mutein as analyte, 1:1 model
T2 construct: extracellular domain; Bought protein; also called huCD137-Fc; KD huCD137; not shown: Fc of human IgG (captured by an anti-human IgG-Fc antibody)
Protocol: Prior to the protein measurements three regeneration cycles were performed for conditioning purposes. Regeneration of the derivatized chip surface was achieved by applying 3M MgCl₂ for 60 s followed by 10 mM glycine, pH 1.7 for 180 s. Anti-human IgG-Fc antibody was utilized to immobilize huCD137-Fc in a subsequent step and taken from the human antibody capture kit (GE Healthcare, BR-1008-39). It was immobilized on a CM5 sensor chip using standard amine coupling chemistry and the immobilization buffer included in the kit (10 mM sodium acetate pH 5.0), resulting in a ligand density of about 13000 resonance units (RU). The reference channel was treated accordingly.
HuCD137-Fc at a concentration of 0.5 μg/mL was captured on this surface for 180 s at a flow rate of 10 μL/min in HBS-EP+ buffer. No target protein was applied to the reference channel. Subsequently, the lipocalin muteins were applied in an appropriate dilution series in HBS-EP+ buffer at a flow rate of 30 μL/min. Regeneration of the derivatized chip surface was achieved as described above. Data were evaluated with Biacore T200 Evaluation software (V 2.0). Double referencing was used and the 1:1 Binding model was used to fit the raw data.

[3] = biological target: T1, human CD137 expressed on cells; assay: cell-based or functional assay
[4] = biological target: T1, human CD137 expressed on cells; assay: FACS on CHO cells stably transfected with human CD137
Protocol: as §1, §2

[5] = biological target: T2, human CD137-Fc fusion protein …; assay: SPR, huCD137-Fc captured via anti-human IgG-Fc antibody
From the text: FIG. 1: provides typical measurements of on-rate and off-rate by surface plasmon resonance (SPR) for the interaction of various representative lipocalin muteins (SEQ ID NOs indicated in the graph) with human CD137 (Fc-fusion) as the target. The targets were immobilized via an anti-human IgG-Fc antibody, which was in turn immobilized on a sensor chip using standard amine coupling chemistry. The lipocalin muteins were employed as the soluble analyte which was flowed at different concentrations across the chip surface. […] The dissociation constants resulting from a fit (1:1 binding model) of the depicted data for all SEQ ID NOs are provided in Table 1.
Prior to the protein measurements three regeneration cycles were performed for conditioning purposes. Regeneration of the derivatized chip surface was achieved by applying 3M MgCl₂ for 60 s followed by 10 mM glycine, pH 1.7 for 180 s. Anti-human IgG-Fc antibody was utilized to immobilize huCD137-Fc in a subsequent step and taken from the human antibody capture kit (GE Healthcare, BR-1008-39). […]
HuCD137-Fc at a concentration of 0.5 μg/mL was captured on this surface for 180 s at a flow rate of 10 μL/min in HBS-EP+ buffer. […] Data were evaluated with Biacore T200 Evaluation software (V 2.0). […]

T1 sequence (Q07011 24-255): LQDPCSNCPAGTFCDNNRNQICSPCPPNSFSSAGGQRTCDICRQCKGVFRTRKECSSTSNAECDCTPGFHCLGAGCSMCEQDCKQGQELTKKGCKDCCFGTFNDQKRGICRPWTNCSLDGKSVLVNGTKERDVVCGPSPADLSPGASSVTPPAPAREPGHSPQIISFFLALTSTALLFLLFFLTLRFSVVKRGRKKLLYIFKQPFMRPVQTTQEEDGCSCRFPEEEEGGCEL

B1: lipocalin mutein of SEQ ID NO: 18 (designed binder, not shown: small tags and cut ends)
chain: QDSTSDLIPAPPLSKVPLQQNFQDNQFHGKWYVVGQAGNIRLREDKDPHKMMATIYELKEDKSYDVTGVTFDDKKCTYAISTFVPGSQPGEFTLGKIKSFPGHTSSLVRVVSTNYNQHAMVFFKFVFQNREEFYITLYGRTKELTSELKENFIRFSKSLGLPENHIVFPVPIDQCIDG
notes: expressed in E. coli with a C-terminal Strep-tag II; also called hNGAL mutein
EC50 [1]: 13.7 nM | Kd [2]: 77 nM

B2: lipocalin mutein of SEQ ID NO: 12 (designed binder, not shown: small tags and cut ends)
chain: QDSTSDLIPAPPLSKVPLQQNFQDNQFHGKWYVVGQAGNIKLREDKDPNKMMATIYELKEDKSYNVTGVTFDDKKCTYAISTFVPGSQPGEFTLGKIKSFPGHTSSLVRVVSTNYNQHAMVFFKFVFQNREEFYITLYGRTKELTSELKENFIRFSKSLGLPENHIVFPVPIDQCIDG
notes: as for B1
Kd [2]: 36 nM

B3: lipocalin mutein of SEQ ID NO: 13 (designed binder, not shown: small tags and cut ends)
chain: QDSTSDLIPAPPLSKVPLQQNFQDNQFHGKWYVVGQAGNIRLREDKDPIKMMATIYELKEDKSYDVTMVKFDDKKCMYDIWTFVPGSQPGEFTLGKIKSFPGHTSSLVRVVSTNYNQHAMVFFKFVFQNREEFYITLYGRTKELTSELKENFIRFSKSLGLPENHIVFPVPIDQCIDG
notes: as for B1
IFN-γ production, coated mutein, anti-CD3 and anti-CD28 stimulation [3]: ≤ 2.5 fold over negative control | IFN-γ production, coated mutein, anti-CD3 stimulation only [3]: ~2.5 fold over negative control | IL-2 production, coated mutein, anti-CD3 and anti-CD28 stimulation [3]: ~6 fold over negative control | maximum response at 6.25 µg/mL coating concentration (readout not named, probably IL-2), anti-CD3 stimulation only [3]: 15 fold over negative control | proliferation rate (BrdU), coated mutein, anti-CD3 and anti-CD28 stimulation [3]: ≤ 14 fold over negative control | proliferation rate (BrdU), coated mutein, anti-CD3 stimulation only [3]: ≤ 4 fold over negative control | EC50 [1]: 4.3 nM | Kd [2]: 2 nM

B4: lipocalin mutein of SEQ ID NO: 14 (designed binder, not shown: small tags and cut ends)
chain: QDSTSDLIPAPPLSKVPLQQNFQDNQFHGKWYVVGQAGNIRLREDKDPNKMMATIYELKEDKSYDVTAVAFDDKKCTYDIWTFVPGSQPGEFTLGKIKSFPGHTSSLVRVVSTNYNQHAMVFFKFVFQNREEFYITLYGRTKELTSELKENFIRFSKSLGLPENHIVFPVPIDQCIDG
notes: as for B1
EC50 [1]: 4.5 nM | Kd [2]: 9 nM

B5: lipocalin mutein of SEQ ID NO: 15 (designed binder, not shown: small tags and cut ends)
chain: QDSTSDLIPAPPLSKVPLQQNFQDNQFHGKWYVVGQAGNIKLREDKDPNKMMATIYELKEDKSYDVTAVAFDDKKCTYDIWTFVPGSQPGEFTLGKIKSFPGHTSSLVRVVSTNYNQHAMVFFKFVFQNREEFYITLYGRTKELTSELKENFIRFSKSLGLPENHIVFPVPIDQCIDG
notes: as for B1
EC50 [1]: 7.8 nM | Kd [2]: 23 nM

B6: lipocalin mutein of SEQ ID NO: 17 (designed binder, not shown: small tags and cut ends)
chain: QDSTSDLIPAPPLSKVPLQQNFQDNQFHGKWYVVGQAGNIKLREDKDPVKMMATIYELKEDKSYDVTGVTFDDKKCRYDISTFVPGSQPGEFTFGKIKSFPGHTSSLVRVVSTNYNQHAMVFFKFVFQNREEFYITLYGRTKELTSELKENFIRFSKSLGLPENHIVFPVPIDQCIDG
notes: as for B1
EC50 [1]: 17.9 nM | Kd [2]: 50 nM

B7: lipocalin mutein of SEQ ID NO: 19 (designed binder, not shown: small tags and cut ends)
chain: QDSTSDLIPAPPLSKVPLQQNFQDNQFHGKWYVVGQAGNIKLREDKDPNKMMATIYELKEDKSYDVTGVTFDDKKCTYAISTLVPGSQPGEFTFGKIKSFPGHTSSLVRVVSTNYNQHAMVFFKFVFQNREEFYITLYGRTKELTSELKENFIRFSKSLGLPENHIVFPVPIDQCIDG
notes: as for B1
Kd [2]: 98 nM

B8: lipocalin mutein of SEQ ID NO: 20 (designed binder, not shown: small tags and cut ends)
chain: QDSTSDLIPAPPLSKVPLQQNFQDNQFHGKWYVVGQAGNIRLREDKDPSKMMATIYELKEDKSYDVTAVTFDDKKCNYAISTFVPGSQPGEFTLGKIKSFPGHTSSLVRVVSTNYNQHAMVFFKFVFQNREEFYITLYGRTKELTSELKENFIRFSKSLGLPENHIVFPVPIDQCIDG
notes: as for B1
EC50 [1]: 18 nM | Kd [2]: 138 nM

B9: lipocalin mutein of SEQ ID NO: 16 (designed binder, not shown: small tags and cut ends)
chain: QDSTSDLIPAPPLSKVPLQQNFQDNQFHGKWYVVGQAGNIKLREDSKMMATIYELKEDKSYDVTGVSFDDKKCTYAIMTFVPGSQPGEFTLGKIKSFPGHTSSLVRVVSTNYNQHAMVFFKFVFQNREEFYITLYGRTKELTSELKENFIRFSKSLGLPENHIVFPVPIDQCIDG
notes: as for B1
Kd [2]: 30 nM

B10: negative control, wild-type like lipocalin mutein SEQ ID NO: 4 (other)
chain: QDSTSDLIPAPPLSKVPLQQNFQDNQFHGKWYVVGLAGNAILREDKDPQKMYATIYELKEDKSYNVTSVLFRKKKCDYWIRTFVPGSQPGEFTLGNIKSYPGLTSYLVRVVSTNYNQHAMVFFKKVSQNREYFKITLYGRTKELTSELKENFIRFSKSLGLPENHIVFPVPIDQCIDG
notes: captured by anti-hNGAL antibody in the T-cell assays
binding result [4]: no binding | binding result [5]: no binding

From US20180148484A1 (Pieris, published 2018)
